T1: His6-tagged Lhs1p (wild type) (S. cerevisiae, UniProt P36016 21-881)
T1 sequence: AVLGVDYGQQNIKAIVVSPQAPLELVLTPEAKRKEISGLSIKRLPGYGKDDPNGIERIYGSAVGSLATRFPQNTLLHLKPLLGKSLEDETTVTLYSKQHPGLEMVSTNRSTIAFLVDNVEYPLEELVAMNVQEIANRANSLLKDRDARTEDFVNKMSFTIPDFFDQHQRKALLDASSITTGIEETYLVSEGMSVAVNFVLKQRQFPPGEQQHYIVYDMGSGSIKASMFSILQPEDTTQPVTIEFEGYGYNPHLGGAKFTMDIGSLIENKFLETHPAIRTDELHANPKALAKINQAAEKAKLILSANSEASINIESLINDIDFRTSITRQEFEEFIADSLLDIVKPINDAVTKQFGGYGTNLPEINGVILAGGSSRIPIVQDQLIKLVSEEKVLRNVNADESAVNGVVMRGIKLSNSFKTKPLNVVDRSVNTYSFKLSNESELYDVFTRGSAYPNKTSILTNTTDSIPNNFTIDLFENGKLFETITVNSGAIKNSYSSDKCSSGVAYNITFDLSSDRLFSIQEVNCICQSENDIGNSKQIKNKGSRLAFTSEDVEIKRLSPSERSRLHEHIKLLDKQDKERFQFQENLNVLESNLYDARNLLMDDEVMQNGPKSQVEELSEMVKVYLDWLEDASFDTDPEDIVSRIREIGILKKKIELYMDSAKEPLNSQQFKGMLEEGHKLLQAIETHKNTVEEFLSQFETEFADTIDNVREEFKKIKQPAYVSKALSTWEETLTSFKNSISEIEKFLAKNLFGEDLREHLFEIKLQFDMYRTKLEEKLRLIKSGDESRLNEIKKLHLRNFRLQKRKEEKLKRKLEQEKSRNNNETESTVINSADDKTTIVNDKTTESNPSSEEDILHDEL

B1: GST-tagged Kar2p (wild type) (natural protein)
chain: not shown
B2: GST-tagged Kar2p(G246D) (natural protein)
chain: not shown

Target: T1, His6-tagged Lhs1p (wild type)
Experiment: pull-down

Row | Binder | binding result
1 | B1 | binds
2 | B2 | binds
